Tested on: DraIII restriction endonuclease (R.DraIII) (Deinococcus radiophilus)
Test: cleavage_in_vitro
Conditions: Source-15Q fraction 11; DraIII activity assayed on lambda DNA

Substance: lambda DNA
- activity: 121000 u/ml
